Measured values reported in PMC3057930 (Proteins, 2010).
Marks after values point to notes of the source that are not given here.

What was measured:
[1] = target: T1, CaM1-148 (Paramecium tetraurelia, UniProt P07463); test: Population distribution of calcium ligation species
[2] = target: T1, CaM1-148; test: CaM titration of Fl-βCaNp, fluorescence anisotropy, CaM1-148; format: binding; details: CaM1-148, Ca2+-saturated (limiting value), 10 mM CaCl2, 100 nM Fl-βCaNp, stoichiometric titration, upper limit, pH 7.4, 22 °C
[3] = tested on: CaM C-domain vs N-domain; details: ref [15]; cited from earlier work
[4] = tested on: CaN; details: CaM binding to CaNA; ref [9],[10]; cited from earlier work
[5] = target: CaN; details: cited from earlier work
[6] = tested on: 15N-(Ca^2+)4-CaM1-148; test: 15N T2 relaxation by NMR; format: physicochemical, Paramecium; details: 500 μM 15N-CaM1-148, 10-20% molar excess of peptide; 5 mM CaCl2, 50 mM HEPES, pH 7.4; 22 °C; 800 MHz; excluding mobile termini
[7] = target: (Ca^2+)4-CaM1-148 (Paramecium tetraurelia, UniProt P07463); details: Ca2+-CaM1-148 bound to melittin; 10 mM CaCl2; ref Sorensen et al [42]; cited from earlier work

CC[C@H](C)[C@H](NC(=O)[C@H](C)NC(=O)[C@H](CCCNC(=N)N)NC(=O)[C@@H](NC(=O)[C@H](CCCCN)NC(=O)[C@H](CC(N)=O)NC(=O)[C@H](CCCNC(=N)N)NC(=O)[C@@H](NC(=O)[C@@H](NC(=O)[C@H](CCC(=O)O)NC(=O)[C@H](CCCCN)NC(=O)[C@H](CCCNC(=N)N)NC(=O)[C@H](C)N)[C@@H](C)CC)[C@@H](C)CC)[C@@H](C)CC)C(=O)NCC(=O)N[C@@H](CCCCN)C(=O)N[C@@H](CCSC)C(=O)N[C@@H](C)C(=O)N[C@@H](CCCNC(=N)N)C(=O)N[C@H](C(=O)N[C@@H](Cc1ccccc1)C(=O)N[C@@H](CO)C(=O)N[C@H](C(=O)N[C@@H](CC(C)C)C(=O)N[C@@H](CCCNC(=N)N)C(=O)O)C(C)C)C(C)C [βCaNp]
cooperativity term kI–II ([1]; CaM1-148, presence of βCaNp): 19.90 M⁻¹ | Kd [2]: ≤ 1 nM

CaM1-148: full-length Paramecium CaM, residues 1-148
calcium affinity of C-domain relative to N-domain [3]: ~ 25 fold | cooperativity term kIII–IV ([1]; CaM1-148, absence of βCaNp): 54.39 M⁻¹ | cooperativity term kI–II ([1]; CaM1-148, absence of βCaNp): 1.73 M⁻¹

Calmodulin [CaM]
increase of phosphatase activity of CaN [4]: 10 fold | Ca2+ concentration of maximal population of intermediate (0011) ([1]; CaM alone, simulation): 2 µM | maximal population of intermediate (0011) ([1]; CaM alone, simulation): 70% | dissociation constant of (Ca2+)4-CaM from CaN (range in words) ([5]; ref [35]): low nM range | Kd of full-length CaM from CaN (range in words) ([5]; ref [36]): pM range

Mammalian CaM [mCaM]
calcium affinity of C-domain relative to N-domain [3]: about 10 fold

Melittin: another peptide that forms a 1:1 complex with CaM (GIGAVLKVLTTGLPALISWIKRKRQQG)
Average T2 [6]: 0.050 ± 0.006 s | Stokes Radius [7]: 22.94 ± 0.32 ^f Å
